Assay results from the supplement of paper PMC7125110.
± gives the standard error. For some assays here: Variants at the floor of the assay were thinned out.

B1: glmS ribozyme (parent)
chain: AUAAAAGCGCCAGAACUACAGAAAUGUAGUUGACGAGGAGGAGGUUUAUCGAAUUUUCGGCGGAUGCCUCCAAA

Experiments:
Settings in all cases: with glucosamine-6-phosphate
[1] = variants of: B1; experiment: kcat; higher = faster cleavage; RNA array
Summary of the method: (§1)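 Tiles of sequenced MiSeq chips were imaged over ~14 h at 37 °C. On them, barcoded ribozyme variants had been transcribed in situ by E. coli RNA polymerase and were tracked via a hybridised Cy3 probe while glucosamine-6-phosphate (40 μM to 10 mM) in HEPES/KCl/Mg(OAc)2 buffer flowed in. Per-tile medians, normalised to baseline and to non-cleaving reference variants, were fit to one- or two-exponential decays for kobs, and weighted Michaelis–Menten fits gave kcat and KM.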

[2] = variants of: B1; experiment: KM; higher = weaker cofactor use; RNA array
Summary of the method: as §1

[3] = variants of: B1; experiment: self-cleavage kobs at 160 uM GlcN6P; higher = faster cleavage; RNA array
Summary of the method: as §1

[4] = variants of: B1; experiment: self-cleavage kobs at 640 uM GlcN6P; higher = faster cleavage; RNA array
Summary of the method: as §1

[5] = variants of: B1; experiment: self-cleavage kobs at 2500 uM GlcN6P; higher = faster cleavage; RNA array
Summary of the method: as §1

[6] = variants of: B1; experiment: self-cleavage kobs at 10000 uM GlcN6P; higher = faster cleavage; RNA array
Summary of the method: as §1

[7] = variants of: B1; experiment: self-cleavage kobs at 40 uM GlcN6P; higher = faster cleavage; RNA array
Summary of the method: as §1

Row | Variant | kcat [1] [s⁻¹] | KM [2] [µM] | self-cleavage kobs at 160 uM GlcN6P [3] [s⁻¹] | self-cleavage kobs at 640 uM GlcN6P [4] [s⁻¹] | self-cleavage kobs at 2500 uM GlcN6P [5] [s⁻¹] | self-cleavage kobs at 10000 uM GlcN6P [6] [s⁻¹] | self-cleavage kobs at 40 uM GlcN6P [7] [s⁻¹]
1 | U47G A52G | 0.000681 ± 0.00017 | 1570 ± 620 | 8.74e-05 ± 1.5e-05 | 0.00017 ± 2.3e-05 | 0.000443 ± 6.8e-05 | 0.000619 ± 0.00013 | 
2 | A15G A52G | 0.00182 ± 0.00044 | 3750 ± 1400 | 8.59e-05 ± 2.3e-05 | 0.000293 ± 3.7e-05 | 0.000596 ± 8.6e-05 | 0.0015 ± 0.00019 | 
3 | C16U G37C | 1.3e-05 ± 3e-06 |  |  |  |  |  | < 1e-05
4 | A15G G40A | 0.0072 ± 0.0015 | 1290 ± 400 | 0.000754 ± 0.00016 | 0.00207 ± 0.00049 | 0.00475 ± 0.00096 | 0.00713 ± 0.002 | 0.000316 ± 8.2e-05
5 | U30A U31G | 0.0198 ± 0.0021 | 2040 ± 290 | 0.00148 ± 0.00031 | 0.00508 ± 0.0011 | 0.00933 ± 0.0019 | 0.0178 ± 0.003 | 0.000379 ± 4.9e-05
6 | A14U C58U | 0.000114 ± 1.5e-05 | 2600 ± 960 |  |  | 5.89e-05 ± 1.1e-05 | 9.01e-05 ± 1e-05 | 
7 | A6U C68U | 8.73e-05 ± 5.1e-06 | 491 ± 140 |  | 4.75e-05 ± 8.3e-06 | 8.07e-05 ± 9e-06 | 8e-05 ± 7.3e-06 | 
8 | U31C A33C | < 1e-05 | 5010 ± 1800 | < 1e-05 |  |  |  | < 1e-05
9 | G13U U47A | 0.00106 ± 0.00021 | 4310 ± 1300 | 3.53e-05 ± 1.3e-05 | 0.000144 ± 1.5e-05 | 0.000332 ± 5e-05 | 0.000776 ± 8.7e-05 | 2.95e-05 ± 1.5e-05
10 | U57A C70U | 0.000272 ± 5.5e-05 | 2300 ± 790 | 5.07e-05 ± 2.3e-05 | 5.92e-05 ± 7.8e-06 | 0.000133 ± 1.9e-05 | 0.000234 ± 3.8e-05 | 
11 | A6U A15C | 7.81e-05 ± 1.6e-05 | 4250 ± 2000 |  |  | 2.58e-05 ± 7.8e-06 | 5.56e-05 ± 8.2e-06 | < 1e-05
12 | U31C G40C | 0.000274 ± 4.9e-05 |  |  | 0.000125 ± 5e-05 | 0.000177 ± 4e-05 | 0.000287 ± 6.9e-05 | 
13 | G13A U65A | 0.000116 ± 3.9e-05 |  |  |  | 2.1e-05 ± 9.1e-06 | 5.81e-05 ± 8.7e-06 | < 1e-05
14 | C34U G38A C71U | < 1e-05 |  | < 1e-05 |  | < 1e-05 |  | < 1e-05
15 | U56C C68G | < 1e-05 |  | < 1e-05 |  |  | < 1e-05 | 
16 | A33C U46G | 9.24e-05 ± 1.2e-05 | 1050 ± 490 |  | 2.94e-05 ± 1.3e-05 | 8.65e-05 ± 2.1e-05 | 7.98e-05 ± 1.3e-05 | 
17 | G37A U55A | 0.00489 ± 0.0022 |  | 0.000133 ± 2.8e-05 | 0.000667 ± 0.00015 | 0.00226 ± 0.00037 | 0.00286 ± 0.00068 | 0.000128 ± 5.4e-05
18 | G13U U56C | 0.000107 ± 3.8e-05 |  |  | 9.36e-05 ± 1.9e-05 | 7.63e-05 ± 1.5e-05 | 0.000214 ± 4.4e-05 | < 1e-05
19 | C16U U31G | 0.0126 ± 0.0042 | 3460 ± 1500 | 0.00118 ± 0.00045 | 0.00226 ± 0.00062 | 0.00478 ± 0.00085 | 0.0111 ± 0.0031 | 0.000138 ± 2.7e-05
20 | U55C U69C | 0.00119 ± 0.00046 |  |  | 6.77e-05 ± 2.8e-05 | 0.000177 ± 2.6e-05 | 0.000523 ± 0.00012 | 
21 | U31A U46A | 0.00237 ± 0.00062 | 5680 ± 2600 | 4.27e-05 ± 1.9e-05 | 0.000292 ± 9.4e-05 | 0.000857 ± 0.0002 | 0.00149 ± 0.00018 | 3.33e-05 ± 1.3e-05
22 | C11U C70G C71U | 5.18e-05 ± 1e-05 |  |  | 7.99e-05 ± 2.7e-05 |  | 5.18e-05 ± 1.3e-05 | 
23 | U30A G66A | 0.0034 ± 0.00044 | 1870 ± 370 | 0.00021 ± 5.2e-05 | 0.000751 ± 0.00018 | 0.00197 ± 0.00024 | 0.0029 ± 0.00037 | 8.19e-05 ± 1e-05
24 | G41C U46C | 3.31e-05 ± 3.8e-06 | 2440 ± 1200 | < 1e-05 |  |  | 2.65e-05 ± 9.7e-06 | < 1e-05
25 | A39U A53G C67G | 0.00494 ± 0.00087 | 963 ± 280 |  | 0.00186 ± 0.00023 | 0.00346 ± 0.00056 | 0.00612 ± 0.0016 | 0.000219 ± 3.9e-05
26 | A12U A39C | 0.00341 ± 0.00095 | 2770 ± 1100 | 0.000149 ± 2.7e-05 | 0.000656 ± 8.7e-05 | 0.00163 ± 0.00023 | 0.00266 ± 0.00035 | 9.51e-05 ± 1.7e-05
27 | A42U G43U A52G | < 1e-05 |  |  |  | < 1e-05 |  | 
28 | G38U C61G | < 1e-05 |  | < 1e-05 |  |  |  | 
29 | G40U U69G | < 1e-05 | 1720 ± 260 | < 1e-05 | < 1e-05 |  |  | < 1e-05
30 | A53U | 0.048 ± 0.0058 | 2500 ± 350 | 0.00253 ± 0.00016 | 0.0093 ± 0.00029 | 0.0221 ± 0.00097 | 0.042 ± 0.0018 | 0.000782 ± 1.4e-05
